This data set can be described thus: yeast display, Sf9 membrane polyspecificity reagent, FACS + sequencing; frameworks hold sequencing errors. In a few lines:
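Polyreactivity labels are assigned by the sorting gate from which each nanobody was recovered. The gates were low and high (top ~1%), set on anti-HA fluorescence for expression and streptavidin fluorescence for reagent binding. Before sorting, galactose-induced (36–48 hours) yeast display cells were stained for 1 hour at 4 °C with 10% biotinylated, detergent-solubilized Sf9 membrane reagent.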
With “QVKLVDSGVGLVQAGVSLRLSCAASGSIFGTYAMGWYRQAPGKERELVAAISYRGTSTYYADSVKGRFTISRDNAKNTVYLQMNSLKPEDTAVYYCAARHGYTYRSGYYYWGQGTQVTVSS”, the “polyreactivity (PSR sort gate)” value is on record as “high polyreactivity”. As for “QVKLVESAGGLVQAGASLRLSCAPSGITFKRYAMGWSSQQPGKQSELVAAITSGGSTHYADSVKGRFTISRDNAKNTVYLQMNTLKPEDTAVYYCATRRYKWGVRYDYWGQGTQVTVSS”, the “polyreactivity (PSR sort gate)” value is reported as “high polyreactivity”.

For “QVKLVESAGGLVQAGGSLRLSCPASGRTFYRYVMGWSRQEPGKERELVAAITPGGSTYADSVKGRFTISRDNAKNTVYLQMNSLKPEDTAVYYCNKRKASSSGYNYWGQGTQVTVSS”, the “polyreactivity (PSR sort gate)” value is given as “low polyreactivity”. Next, “QVKLVESCGGLVQAGGSLRLSCAASGFIFRNYAMGWYRQARGKERELVAAIDYSVGSTNYADSVKWRFTISRDNAKNTVYLQMNSLKPEDTAVYYCNAEYTWHRGYDYFGQGTQVTVSS”: “low polyreactivity”. Consider “QVKLVESGGALVQAGGSLRLSCAASGSTFGWYAMGRYRQAPGKERELVAGISSGGASTYYADSVKGRFTISRDNAKNTFYLQMNSLKPEDSAVYYCAKDQIFRGYKTKFGYWGQGTQLTVSS”, for which the “polyreactivity (PSR sort gate)” value was “low polyreactivity”. The same measure for “QVKLVESGGALVQAGGSLRLSCPASGRTFGQTAMGWYRQAPGKERELVAAITWSDDDTYYADSVKGRFTISRDNAKNTVYLQMNSLKPEDTAVYYCAATYPYRQYDYWGQGTQVTVSS”: “low polyreactivity”; for “QVKLVESGGGIVKAGCSLRLSCGASGLTYNTYDMGWYRQAPGKERELVADISRGRGSTYYADSVKGRFTISRDNAKNTVYLQMHSLKPEDTAFYYCNAEKRSSYLMYDYWGQGTQVTVSS”: “high polyreactivity”; for “QVKLVESGGGLDKAGGSLRLSCAASGLIFYLYPKGWYRQAPGQERELVAAISRSGDTTYYADSVKGRFTISRDNAKNTVYLQMNSLKPEDTAVYYCAADDYYKFDYWGQGTQVTVSS”: “low polyreactivity”. On to “QVKLVESGGGLVKAGGRLRLSCAASGRTFWYNAMGRYRPAPGKESELVAAINFSGGITYYADSVKGRFTISRDNAKNTVYLQMNSLKPEDTAVYYCNAVSRGRDAAGNYWGQGTQVTVSS”, for which the “polyreactivity (PSR sort gate)” value is given as “high polyreactivity”.

Regarding “QVKLVESGGGLVKAGGSIRLSCAASGFTFGVYAKGSYRQAPAKERELVAAISTTVGSTYYADSVKGRFTISRDNAKNTVYLQMNSLKPEVTAVYYCSAEYTGYINYYIYEYWGQGTQVTVSS”, the “polyreactivity (PSR sort gate)” value was “low polyreactivity”. Next, “QVKLVESGGGLVQAGGILRLSCAASGLIFTTYAMGWYRQAPGKERELVAVISGCGSTSYADSVKGRFTISRDNAKNTVYLQMNSLKPEDTAVYYCAADKPVSQGPIPGYTNDYWGQGTQVTVSS”: “low polyreactivity”; “QVKLVESGGGLVQAGGRLRLSCAASGSIFLLYPMGWYRQAPGKERELVAAISSGGSTYADSVKGRFTISRDNAKNTVYLLLNSLKPADTAVYYGAKVGGWYDPYTYGYSEYGYWGNGTQVTVSS”: “low polyreactivity”; “QVKLVESGGGLVQAGGSHRLSCPASGRIFYPYAMGWYRQAPGKESELVAAISWSTVSTYYADSVKGRFTISRDNAKNNVYLQMNSLKPEDTAVYYCAARLYFSSSLRCVDFWGQGTQVTVSS”: “high polyreactivity”.

As for “QVKLVESGGGLVQAGGSLLLSCAASVLTFYRYVIVCYRQEPGKERELVAAITKSGGSTYYADSVKGRFTISRDNAKNTVYLQMNSLKPEDTAVYYCAVRSYWRGDYWGQGTQVTVSS”, the “polyreactivity (PSR sort gate)” value is given as “high polyreactivity”. Next, “QVKLVESGGGLVQAGGSLRLICAASGNTFGPYDMGWYRQAPGKERQLVAGITSGGSTYYADSVKGSFTITRDNAKNTVYLQMNSLKPEDTAVYYCAADYYLWVYWYDYWGQGTQVTVSS”: “high polyreactivity”.

Consider “QVKLVESGGGLVQAGGSLRLSCAASGFTFANYAMGWYRQAPGKEREFVAAITKGGGSTNYADSVKGRFTISRDNAKNTVYLQMNSLKPEDTAVYYCNADYFVWYIGRVFSRYGYWGQGTQVTVSS”, for which the “polyreactivity (PSR sort gate)” value is recorded as “low polyreactivity”. Turning to “QVKLVESGGGLVQAGGSLRLSCAASGGIFTDYTMGWSRQAPGKERELVAAITWTGGSTYYADSVKGRFTISRYNAKNTVYLQMNSLKPEDTAVYYCSADDYWVNLDYWGQGTQVNVSS”, the “polyreactivity (PSR sort gate)” value is “low polyreactivity”. The same measure for “QVKLVESGGGLVQAGGSLRLSCAASGLIFQKYAMGWYRQPPGKERELVAAISGGGRTYYADSVKGRFTISRDNSKNTVYLQMNSMKPEDTAVYYCAVYWYYLGYYYYYDFDYWGQGTQVTVSS”: “high polyreactivity”; for “QVKLVESGGGLVQAGGSLRLSCAASGRICLSYTMGWYRQAPGKERELVATIDSGVSTNYADSVKGRFTITRDNAKNTVYVQMNSLKPEDTAVYYGNADGFYSSHGYDYWGQGTQVTVSS”: “low polyreactivity”. Next, “QVKLVESGGGLVQAGGSLRLSCAASGRTFGVYAMGWYRQAPGKEREFVATITSRGGRTYYADSVKGRFTISRDNAKNTVYLQMNSLKPEDTAVYYCAVGRGSLRGRTDGGYWGQGTQVTVSS”: “high polyreactivity”; “QVKLVESGGGLVQAGGSLRLSCAASGRTISGNAMGWYRQAPGKERELVATISGRGGSTYYADSVKGSFTISRDNAKNTVYLQMTSLKPEDTAVYYCAKRLYSRRPLMDSWGQGTQVTVSS”: “high polyreactivity”; “QVKLVESGGGLVQAGGSLRLSCAASGRTLGGYAMRWYRQAPGKERQLVAAITRRGGSRYYADTVKGRFTISRDNAKNTVYLQMNSLKPEDSAVYYCAARWYARSLTRFNYWGKGTQVTVSS”: “high polyreactivity”.

For the sequence “QVKLVESGGGLVQAGGSLRLSCAASGSIFSRNTIGCDRQEPGKERELVAGISSSGSRTYYADSVKGRFTISRDNAKNTVYLQMNSLIPEDTAVYYCAAEHQRSRGRRYYIGYDYWGQGTQVTVSS”, the “polyreactivity (PSR sort gate)” value is recorded as “low polyreactivity”.

With “QVKLVESGGGLVQAGGSLRLSCAASGSIYWYAMGWYRQAPGKERELVAAISRRGGSTYYADSVKGRFTISRDNAKNTVYLQMNSLKPEDTAVYYCAVGIYGEYDYWGQGTQVTVSS”, the “polyreactivity (PSR sort gate)” value is listed as “high polyreactivity”. On to “QVKLVESGGGLVQAGGSLRLSCAASGSTFGINARGWYRQAPGKERELVAAITFISGSTNYADSVKGRFTISRDNAKNTVYLQMNSLKPEDTAVYYCAARCTSTPVYSRYGYWGQGTQVTVSS”, for which the “polyreactivity (PSR sort gate)” value is “low polyreactivity”. For the sequence “QVKLVESGGGLVQAGGSLRLSCAASGSTFLIYAMGWYRQAPGKERELVAAITVSGGDTYYADSVKGRFTISRDNAKNTVYLQMNSLKPEDTAVYYCAAEGGNDYSSVDAGISYDYWGQGTQVTVSS”, the “polyreactivity (PSR sort gate)” value is recorded as “low polyreactivity”. For the sequence “QVKLVESGGGLVQAGGSLRLSCAASGSTFVVNAMGCYRQAPGKERELVAAITQSGGSTFYADSVKGRFTISRDNAKNTVYLQMNSLKPEDTAVYYCAADTYYYYWFACYTEYDYWGQGTQVTVSS”, the “polyreactivity (PSR sort gate)” value is “low polyreactivity”.

On to “QVKLVESGGGLVQAGGSLRLSCAAYGSTFAYNAMGWYRQAPGKERELVADISWSGGSTYYADSVKGRFTISRDNAKNTVYLQMNSLNPEDTAVYYCATEYSEGITQFFWATDYDYWGQGSQVTVSS”, for which the “polyreactivity (PSR sort gate)” value was “high polyreactivity”. Next, “QVKLVESGGGLVQAGGSLRLSCADSGRTFYYNTMGWYRQAPGKERELVADITISGGSTYYADSVKGRFTISRDNAKNTVYLQMKSLKPEDTAVYYCAAGWFSLSTAYYHKRVGYNYWGQGTQVTVSS”: “high polyreactivity”; “QVKLVESGGGLVQAGGSLRLSCAPSARIFDIYPLGWSRQAPGKERELVAGITSVGSTNYADSVKGRFTISRDNAKYTVYLQMTSLNPEDTAVYDCASVTSVHSEVDYWGQGTQVTVSS”: “low polyreactivity”; “QVKLVESGGGLVQAGGSLRLSCHASGFTFPYYAMGWYRQAPGKERELVAAISQIGDRTYYADSVKGRFTISRDNAKNTVYLQMNSLKPEDTAVYYCNGAGKVRKYGYWGQGTQVTVSS”: “high polyreactivity”. The same measure for “QVKLVESGGGLVQAGGSLSLSCDASGNTFVRNVMGSYRQEPGKERELLAAIRSGTRTYYADSVKGRFTISRDNAKNTVYLQINSLKPEDTAVYYCATYRTYNSYRYDYWGQGTQVTVSS”: “high polyreactivity”; for “QVKLVESGGGLVQSGGSLRLRCAASGSTITGYAMGWYRQAPRKERDLVAAITYTGTSTYYADTVKGRYTISRDNAKNTVYLEMNSLNPEDTAVYYCAARLAWWKTYIRYYYWGKGTQVTVSS”: “high polyreactivity”. Next, “QVKLVESGGRLVQAGGSLRLSCAASGIIFFSYAMRSYRQAPGKERELVAAISGTGGNTYYADSVKGRFTISRDNAKNTVYFQMNSLKPEDTAVYYCAADQEWYYYFVSFAYYILDYWGQGTEVTVSS”: “high polyreactivity”; “QVKLVESGGRLVQAGGSLRLTCAASGFIFLNYSMGWYRQAHGKERELVAAISRSGGRTYYADSVTGRFTISRDYAKNTVYLQMNSLKPEDPAVYYCAVYIYGIVFYFTYMYVNCYDYWGQGTQVTVSS”: “high polyreactivity”; “QVKLVESGGVLVQAGGSLRLSCAASGSIFVYNAMGWYRQAPGKERELVAAISQRGGSTYYADSVKGRFTISRDNAKNSVYLQMNSLKPEDTAVYYCAAGPGDSGDDYWGQGSQVTVSS”: “low polyreactivity”. On to “QVKLVESGRGLVQAGGSLRISCDASGSIFYYYAMGWYRQAPGKERELVAAINGGDTNYADSVKGRFTISRDNAKNTVYLQMTSLKPEDTAVYYCAAEGVTVEWDYDYWGQATQVTVSS”, for which the “polyreactivity (PSR sort gate)” value is reported as “low polyreactivity”. Next, “QVKLVESGRGLVQAGGSLRLSCAASGFTFRYYGMGWYRQAPGKERELVASITASGVSTSYADSVKGRFTISRDNAKNTVYLQMNSLKPEDTAVYYCNAVVGAWSLFDYWGQGTQVTVSS”: “high polyreactivity”; “QVKLVESGRGLVQAGGSLRLSCAASGYKCIVYTMGWYRQAPGKERELVAAISSGGITAYADSVKGRITISRDNAKNTVYLQMNSLKPEYTAVYYWGQGTQVTVSS”: “low polyreactivity”. Regarding “QVKLVESRGGLVQAGGSLRLSCAASGFTFFLYTMGWYRQAPGKERELVATITSAGTTNYADSVKGRFTISRDNAKNTVYLQMNSLIPEDTAVYYCNADRWEYDYWGQGTQVTVSS”, the “polyreactivity (PSR sort gate)” value is “low polyreactivity”. As to “QVKLVQSGGGLVEAGGSLLLSCAASGRIFDQYAMGWYRPAPGKERELVAAITTSGDNTYYADSVKGRFTISRDNAKNTVYLQMNSLKPEDTAVYYCKVDIDTFWYGSDYWGQVTQVTVSS”, the “polyreactivity (PSR sort gate)” value was “high polyreactivity”.

Source of the values: the nanobody polyreactivity screen of Harvey et al. (2022).
